Paper PMC10384113, “Structural and Functional Characterization of Drosophila melanogaster α-Amylase” (Molecules, 2023)
Each block holds one molecule with its values, some of them ahead of it.

Key:
[1] = molecular target: T1, DMA (Drosophila melanogaster α-amylase) (Drosophila melanogaster, UniProt P08144); assay: residual activity on starch after inhibitor preincubation; type: biochemical; conditions: native DMA, Pichia-produced; inhibitor 1-50 µM, 20 mM HEPES pH 7.5, 20 mM NaCl, 1 mM CaCl2, 25 °C
T1 construct: gene Amy-p; mature enzyme of 476 residues in crystal; recombinant, amy-p in pET22b, E. coli BL21 (kinetics, crystals); glycogen-purified; no tag mentioned
T1 sequence (P08144 with tags, fused parts or gaps): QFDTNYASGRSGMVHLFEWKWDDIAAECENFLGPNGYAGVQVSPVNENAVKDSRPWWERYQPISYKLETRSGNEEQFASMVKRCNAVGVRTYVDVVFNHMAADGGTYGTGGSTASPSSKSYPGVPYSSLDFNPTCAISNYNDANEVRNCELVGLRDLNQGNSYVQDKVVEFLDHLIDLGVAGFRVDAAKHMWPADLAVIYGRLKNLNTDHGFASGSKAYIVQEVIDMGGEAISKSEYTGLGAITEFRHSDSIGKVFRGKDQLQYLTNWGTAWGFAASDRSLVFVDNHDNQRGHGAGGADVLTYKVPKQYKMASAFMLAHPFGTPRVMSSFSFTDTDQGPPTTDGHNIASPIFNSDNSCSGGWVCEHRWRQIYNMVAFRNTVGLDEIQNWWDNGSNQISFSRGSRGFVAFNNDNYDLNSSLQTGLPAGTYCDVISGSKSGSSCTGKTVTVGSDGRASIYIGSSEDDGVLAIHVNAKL

[2] = molecular target: Drosophila melanogaster α-amylase (Drosophila melanogaster) (UniProt P08144)
Sequence of Drosophila melanogaster α-amylase (Drosophila melanogaster) (P08144 other isoform, or with tags, fused parts or gaps): as the sequence (P08144 with tags, fused parts or gaps) above

Molecule: C[C@H]1O[C@H](O[C@H]2[C@H](O)[C@@H](O)[C@@H](O[C@H]3[C@H](O)[C@@H](O)C(O)O[C@@H]3CO)O[C@@H]2CO)[C@H](O)[C@@H](O)[C@@H]1N[C@H]1C=C(CO)[C@@H](O)[C@H](O)[C@H]1O (stereo partly shown) [acarbose]
residual activity (%) [1]: Residual activity of (a) native DMA after treatment with proteinaceous inhibitors and acarbose

residual α-amylase activity of DMA after 20 min incubation with the inhibitor (1 to 50 µM) at 25 °C, pH 7.5; value at 10 μM WI-1 [2]: 6%
Molecule: WI-1 (tetrameric form), wheat α-amylase inhibitor from Triticum aestivum seeds (complex)

residual α-amylase activity of DMA after 20 min incubation with the inhibitor (1 to 50 µM) at 25 °C, pH 7.5; value at 10 μM WI-3 [2]: 0.8%
Molecule: WI-3 (monomeric form), wheat α-amylase inhibitor from Triticum aestivum seeds (natural protein)

residual α-amylase activity of DMA after 20 min incubation with the inhibitor (1 to 50 µM) at 25 °C, pH 7.5; value at the highest concentration (50 μM) of α-AI [2]: 38%
Molecule: α-AI, α-amylase inhibitor from seeds of the common bean Phaseolus vulgaris (natural protein)
